Laboratory results as given in patent US20140073761A1, “CONJUGATES CONTAINING HYDROPHILIC SPACER LINKERS” (priority 2007, published 2014).
Where two headings read alike, the source gives them in different places.

What was measured:
[1] = Serum binding, 30K NMWL filtration, HPLC-UV; assay type: in vitro ADME; settings: 50 μM compound in serum, n=3
Description: Serum Binding. Serum binding of Folate-DAVLBH conjugates containing hydrophilic spacer linkers compared to Comparative Example EC 145 lacking a hydrophilic spacer linker 50 μM compound in serum with 30K NMWL filtration and evaluation by HPLC-UV detection (n=3).

[2] = Description: Toxicity as Measured by Weight Loss. The percentage weight change was determined in mice (5 mice/group) on selected days post-tumor inoculation (PTI), compared to controls, and graphed.
[3] = design: AUC (DAVLBH biliary excretion): unit not given beside the values; settings: rat, in vivo, iv
[4] = Multiple dose MTD, i.v. TIW for 1 week; settings: mouse, in vivo, iv, Balb/c mice
Description: EC0436 and Comparative Example EC0305 were also administered i.v. to Balb/c mice TIW for 1 week. The resulting MTD for the multiple dose was EC0305 ([…]) and EC0436 ([…]).

[5] = Hepatobiliary excretion (bile clearance) in bile duct cannulated rats; settings: 2 μmol/kg i.v. bolus
Description: Comparison of Bile Clearance (% ID) of unconjugated drug, drug conjugate lacking a hydrophilic spacer linker, and conjugates described herein.

[6] = Cytotoxicity of bortezomib versus EC0501 (FIG. 14); assay type: cell-based
[7] = FIG. 6B, 7B, 8B, M109 tumors, Balb/c mice, 2 μmol/kg TIW two weeks

In the case of `CC[C@]1(O)C[C@H]2CN(CCc3c([nH]c4ccccc34)[C@@](C(=O)OC)(c3cc4c(cc3OC)N(C)[C@H]3[C@@](O)(C(=O)NNC(=O)OCCSSC[C@H](NC(=O)[C@H](CC(=O)O)NC(=O)[C@H](CC(=O)O)NC(=O)[C@H](CCCNC(=N)N)NC(=O)[C@H](CC(=O)O)NC(=O)CC[C@H](NC(=O)c5ccc(NCc6cnc7nc(N)[nH]c(=O)c7n6)cc5)C(=O)O)C(=O)O)[C@H](O)[C@]5(CC)C=CCN6CC[C@]43[C@@H]65)C2)C1` [EC145, reference compound], the fraction unbound at 50 μM ([1]; human, read-out: Human Serum (% Bound) (converted)) is reported as 0.457, the fraction unbound at 50 μM ([1]; mouse, read-out: Mouse Serum (% Bound) (converted)) is reported as 0.327 and the “gross toxicity (percentage body weight change)” value ([2]; mouse, in vivo) is reported as “no gross toxicity was observed”. For the same molecule, the “AUC (DAVLBH biliary excretion)” value [3] was 1092 and the “percent of total dose in the bile (total DAVLBH biliary excretion)” value [3] was 8.7%.
For `CCCC(=O)OCN(C(=O)[C@@H](NC[C@H]1CCCCN1C)C(C)CC)[C@H](C[C@@H](OC(C)=O)c1nc(C(=O)N[C@@H](Cc2ccc(O)cc2)C[C@H](C)C(=O)NNC(=O)OCCSSC[C@H](NC(=O)[C@H](CC(=O)O)NC(=O)[C@H](CCCNC(=N)N)NC(=O)[C@H](CC(=O)O)NC(=O)CC[C@H](NC(=O)c2ccc(NCc3cnc4nc(N)[nH]c(=O)c4n3)cc2)C(=O)O)C(=O)O)cs1)C(C)C` (stereo partly shown) [EC0305, reference compound], the MTD at 1 week [4] was 6 µmol/kg and the “gross toxicity (percentage body weight change)” value [2, 7] was “no gross toxicity was observed”.
In the case of `CC[C@]1(O)CC2CN(CCc3c([nH]c4ccccc34)[C@@](C(=O)OC)(c3cc4c(cc3OC)N(C)C3C45CCN4CC=C[C@](CC)(C45)[C@@H](O)[C@]3(O)C(=O)NNC(=O)OCCSSC[C@H](NC(=O)C[C@H](NC(=O)C[C@H](NC(=O)CN3CCN(CCNC(=O)C[C@H](NC(=O)CC[C@H](NC(=O)c4ccc(NCc5cnc6nc(N)[nH]c(=O)c6n5)cc4)C(=O)O)C(=O)O)CC3)C(=O)O)C(=O)O)C(=O)O)C2)C1` (stereo partly shown) [EC0429], the “gross toxicity (percentage body weight change)” value [2, 7] is reported as “no gross toxicity was observed” and the “percent of total dose in the bile (total DAVLBH biliary excretion)” value [5] is reported as 8.6%.
`CC(C)C[C@H](NC(=O)[C@H](Cc1ccccc1)NC(=O)c1cnccn1)B(O)O` [bortezomib] gave an IC50 [6] of 20 nM.
